Laboratory results published in patent US20210315969A1, “GLYCOPROTEINS HAVING LIPID MOBILIZING PROPERTIES AND THERAPEUTIC USES THEREOF” (Aston University, priority 2008, published 2021).

Key:
[1] = system: epididymal adipocytes, gastrocnemius muscle and BAT; assay: Glucose uptake into epididymal adipocytes, gastrocnemius muscle and BAT of rats treated with ZAG; assay type: in vivo, Wistar rats
Protocol: FIG. 12D is a graphical diagram showing glucose uptake into gastrocnemius muscle and BAT of male Wistar rats after 10 days treatment with either ZAG or PBS. in the absence or presence of insulin (60 μU/ml). Differences between ZAG and PBS treated animals are shown as a, p<0.05, b, p<0.01 or c, p<0.001, while differences in the presence of insulin are shown as or f, p<0.001.
Glucose (intake into Atlipocpyes Isolated adipocytes (5×10^4) were washed twice in 1 ml Krebs-Ringer bicarbonate buffer, pH 7.2 (KRBS) and further incubated for 10 min at room temperature in 0.5 ml KRBS containing 18.5MBq […]-^14CI deoxy-D-glucose and non-radioactive 2-deoxy-D-glucose to a final concentration of 0.1 mM. Uptake was terminated by the addition of 1 ml ice-cold glucose-free KRBS, and the cells were washed three times with 1 ml KRBS, lysed by addition of 0.5 ml 1 M NaOH and left for at least 1 h at room temperature before the radioactivity was determined by liquid scintillation counting.
Glucose Uptake into Gostrocneinius Muscle—Gastrocnemius muscles were incubated in Krebs-Henseleit bicarbonate butler for 45 min at 37° C. and then incubated for a further 10 min in 5 ml Krebs-Henseleit butler containing 185M Bq 2-[1-^14C]deoxy-D-glucose and non-radioactive 2-deoxy-D-glucose to a final concentration of 0.1 mM. The muscles were then removed and washed in 0.9% NaCl for 5 min followed by dissolution in 0.5 ml 1M NaOH and the radioactivity was determined by liquid scintillation counting.

[2] = system: proteasome 'chymotrypsin-like' activity, caspase-3 and caspase-8; assay: Proteasome 'chymotrypsin-like' and caspase activity in gastrocnemius muscle; assay type: in vivo; settings: ob/ob mice treated 5 days
Protocol: Gastrocnemius muscle was homogenised in 20 mM Tris, pH7.5, 2 mM ATP, 5 mM MgCl2 and 50 mM DTT at 4° C., sonicated and centrifuged at 18,000 g for 10 min at 4° C. to pellet insoluble material, and the resulting supernatant was used to measure ‘chymotrypsin-like’ enzyme activity in the presence or absence of the proteasome inhibitor lactacystin (10 μM). Only lactacystin suppressible activity was considered as true proteasome activity. The activity of caspase-3 was determined by the release of AMC from AcAsp.Gly.Val.Asp.AMC (SEQ ID NO: 3), and the activity of caspase-8 was determined by the release of 7-amino-4-trifluromethylcoumarin (AFC) from the specific substrate Z-Ile Glu Phe Thr Asp-AFC (SEQ ID NO: 4), using the supernatant from above (50 ug protein), and either the caspase-3 or −8 substrate (10 μM) for ih 37° C. in the presence or absence of the caspase-3 (AcAsp Glu Val Asp-CHO) (SEQ ID NO: 5) or caspase-8 (Ile Glu Phe Thr Asp-CHO) (SEQ ID NO: 6) inhibitors (100 μM). The increase in fluorescence due to […], while the increase in fluorescence due to AFC was measured with an excitation wavelength of 400 nm and an emission wavelength of 505 nm. The difference in values in the absence and presence of the caspase inhibitors was a measure of activity.

[3] = system: C2Cl2 myotubes; assay: ROS formation and PKR/eIF2α phosphorylation in myotubes treated with glucose; assay type: cell-based, murine
Description: FIG. 21 is a graphical diagram showing ROS activity in C2Cl2 myotubes treated with various concentrations of glucose with and without ZAG. Statistically significant c, P<0.001 from control f, P<0.001 from glucose alone.
FIG. 22A is a pictorial diagram of a Western blot showing PKR in C2Cl2 myotubes treated with glucose with and without ZAG. Statistically significant c, P<0.001 from control f, P<0.001 from glucose alone.
FIG. 22B is a pictorial diagram of a Western blot showing elF2a in C2Cl2 myotubes treated with glucose with and without ZAG. Statistically significant c, P<0.001 from control f, P<0.001 from glucose alone.
It has been shown that formation of reactive oxygen species (ROS) is important in protein degradation induced by high glucose load. […] High glucose also induces activation (phosphoiylation) of PKR (FIG. 22A) and the subsequent phosphorylation of elf2α (FIG. 22B) as is seen in skeletal muscle of ob/ob mice, which was also attenuated by ZAG.

[4] = Glucose and triolein oxidation, tissue glucose utilization and BAT oxygen uptake in mice treated with ZAG; assay type: in vivo
Description: FIG. 12E is a graphical diagraph showing tissue Rg in ob/ob mice administered ZAG, c, p<0.001 from PBS.
FIG. 24 is a graphical diagram showing the oxidation of D-[U-^14C glucose] to ^14CO2 in ob/ob mice.
FIG. 25 is a graphical diagram showing production of ^14CO^2 from [^14C carboxy] triolein in ob/ob mice.

[5] = system: protein expression in adipocytes, BAT and gastrocnemius muscle; assay: Western blot analysis of tissues of ob/ob mice treated with ZAG; assay type: in vivo
Protocol: Western Blot Analysis—Freshly excised gastrocnemius muscles were washed in PBS and lysed PHOSPHOSAFE™ Extraction Reagent for 5 min at room temperature followed by sonication at 4° C. The lysate was cleared by centrifugation at 18,000 g for 5 min at 4° C. and samples of cytosolic protein (5 μg) were resolved on 12% sodium dodecyl suflate-polyacrylamide gel electrophoresis at 180V for approximately 1 h. This was followed by transference to 0.45 μm nitrocellulose membranes, which were then blocked with 5% Marvel in Tris-buffered saline, pH 7.5, at 4° C. overnight. Both primary and secondary antibodies were used at a dilution of 1:1000 except anti-myosin (1:250). Incubation was for lh at room temperature, and development was by FCL. Blots were scanned by a densitometer to quantify differences.

B1: Zinc-α2-glycoprotein (protein, listed as Homo sapiens)
chain: QENQDGRYSLTYIYTGLSKHVEDVPAFQALGSLNDLQFFRYNSKDRKSQPMGLWRQVEGMEDWKEDSQLQKAREDMETLKDIVEYYNDSNGSHVLQGRFGCEIENNRSSGAFWKYYYDGKDYIEFNKEIPAWVPFDPAAQITKQKWEAEPVYVQRAKAYLEEECPATLRKYLKYSKNILDRQDPPSVVVTSHQAPGEKKKLKCLAYDFYPGKIDVHWTRAGQVQEPELRGDVLHNGNGTYQSWVVVAVPPQDTAPYSCHVQHSSLAQPLVVPWEAS
notes: recombinant human Zinc-α2-glycoprotein, lipid mobilizing factor, expressed in HEK293F cells
glucose uptake into gastrocnemius muscle and BAT ([1]; absence of insulin, vs PBS): small, non-significant increase
glucose uptake into adipocytes, ZAG versus PBS treated animals ([1]; presence of insulin (60 μU/ml)): no significant difference
glucose uptake into gastrocnemius muscle and BAT ([1]; presence of insulin (60 μU/ml)): significant increase in uptake
caspases-3 and -8 [2]: attenuated
glucose induced phosphorylation of PKR and eIF2α [3]: attenuated
increase in ROS produced by glucose [3]: completely attenuates
glucose utilization/oxidation by brain, heart, BAT and gastrocnemius muscle [4]: increased glucose utilizationloxidation
production of 14CO2 from D-[U-14C] glucose and [14C carboxy] triolein [4]: increased production
expression of HSL in epididymal adipocytes ([5]; 5 days ZAG): increased expression of HSL
expression of HSL in subcutaneous or visceral adipocytes ([5]; 5 days ZAG): no increase
expression of UCP1 and UCP3 in BAT and UCP3 in skeletal muscle ([5]; 5 days ZAG): increased the expression
expression of pERK ([5]; 5 days ZAG, ep, sc, vis adipose tissue): increase in expression of pERK only in ep adipose tissue
phospholipase A2 (PLA2) and p38 mitogen activated protein kinase ([5]; gastrocnemius muscle): attenuated
time ZAG expression was maintained in cultured ep adipocytes ([5]; no ZAG added to culture medium): 3 days
expression of HSL and ATGL in epididymal adipose tissue ([5]; ob/ob mice): increases the expression
actin levels ([5]; skeletal muscle): did not change
